Measurements taken from PMC10776994, “The SDS22:PP1:I3 complex: SDS22 binding to PP1 loosens the active site metal to prime metal exchange” (The Journal of Biological Chemistry, 2023).
Where a chain is given by its changes, count along the chain named. In names and notes the source's numbering stands.

Legend:
Conditions in all cases: both partners purified
[1] = molecular target: T1, SDS22_(56-360):PP1α_(7-330) complex (UniProt Q15435 56-360; P62136 7-330); assay: SPR; His6-PP1 constructs or SDS22_(56-360):PP1α_(7-330) captured on a Ni-NTA chip (NiHC200M), I3 and variants injected; 25 °C; 20 mM Tris pH 8.0, 500 mM NaCl, 0.5 mM TCEP, 0.05% Tween-20; one-to-one one-state or two-state fit
T1 construct: SDS22 (PPP1R7), residues 56-360; Protein phosphatase 1 alpha catalytic subunit (PP1α), residues 7-330; PP1 in this complex lacks the M1 metal; The same complex treated with EDTA (M2 metal extracted) is kept as this molecule and told apart by assay a4; the His6 tag of SDS22 was cleaved, so it is probably His6-PP1; also called SDS22:PP1; SDS22:PP1_(M2-metal-free) / metal-free …
T1 sequence (Q15435 56-360, chain 1 of 2): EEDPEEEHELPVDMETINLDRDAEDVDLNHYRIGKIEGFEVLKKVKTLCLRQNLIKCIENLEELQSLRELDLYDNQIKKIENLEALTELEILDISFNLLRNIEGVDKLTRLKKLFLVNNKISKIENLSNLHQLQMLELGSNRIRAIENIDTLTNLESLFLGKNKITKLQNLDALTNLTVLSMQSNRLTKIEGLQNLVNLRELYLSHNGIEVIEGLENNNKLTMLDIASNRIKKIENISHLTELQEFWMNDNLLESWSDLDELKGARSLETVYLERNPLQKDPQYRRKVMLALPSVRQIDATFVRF
T1 sequence (P62136 7-330, chain 2 of 2): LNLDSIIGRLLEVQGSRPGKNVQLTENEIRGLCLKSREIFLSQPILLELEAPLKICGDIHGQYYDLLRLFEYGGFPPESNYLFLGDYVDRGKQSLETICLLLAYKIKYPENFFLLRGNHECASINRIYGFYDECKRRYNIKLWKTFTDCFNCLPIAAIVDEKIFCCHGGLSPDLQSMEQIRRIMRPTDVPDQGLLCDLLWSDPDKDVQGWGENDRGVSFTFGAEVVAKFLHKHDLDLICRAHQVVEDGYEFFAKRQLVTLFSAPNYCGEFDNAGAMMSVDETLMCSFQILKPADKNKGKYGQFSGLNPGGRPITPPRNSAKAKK

[2] = molecular target: T1, SDS22_(56-360):PP1α_(7-330) complex; assay: SPR; as a3, but SDS22_(56-360):PP1α_(7-330) treated with 3 mM EDTA beforehand and dialysed to extract the M2 metal (metal-free PP1); one-state fit
PP1α_(7-330) R96A = molecular target: T2, PP1α_(7-330) R96A (UniProt P62136 7-330, R96A); assay: SPR; His6-PP1 constructs or SDS22_(56-360):PP1α_(7-330) captured on a Ni-NTA chip (NiHC200M), I3 and variants injected; 25 °C; 20 mM Tris pH 8.0, 500 mM NaCl, 0.5 mM TCEP, 0.05% Tween-20; one-to-one one-state or two-state fit
T2 construct: Protein phosphatase 1 alpha catalytic subunit (PP1α), residues 7-330; also called PP1_(R96A); PP1_(7-330) R96A
T2 sequence (P62136 7-330 R96A): as the sequence (P62136 7-330, chain 2 of 2) above, with R90A counted along it

PP1α_(7-330) R96A/H66K = molecular target: T3, PP1α_(7-330) R96A/H66K (UniProt P62136 7-330, R96A | H66K); assay: as above
T3 construct: Protein phosphatase 1 alpha catalytic subunit (PP1α), residues 7-330; also called PP1_(7-330) R96A/H66K
T3 sequence (P62136 7-330 H66K/R96A): as the sequence (P62136 7-330, chain 2 of 2) above, with H60K, R90A counted along it

PP1α_(7-330) Y134A = molecular target: T4, PP1α_(7-330) Y134A (UniProt P62136 7-330, Y134A); assay: as above
T4 construct: Protein phosphatase 1 alpha catalytic subunit (PP1α), residues 7-330; also called PP1_(Y134A); PP1_(7-330) Y134A
T4 sequence (P62136 7-330 Y134A): as the sequence (P62136 7-330, chain 2 of 2) above, with Y128A counted along it

PP1α_(7-330) Y134A/H66K = molecular target: T5, PP1α_(7-330) Y134A/H66K (UniProt P62136 7-330, Y134A | H66K); assay: as above
T5 construct: Protein phosphatase 1 alpha catalytic subunit (PP1α), residues 7-330; also called PP1_(7-330) Y134A/H66K
T5 sequence (P62136 7-330 H66K/Y134A): as the sequence (P62136 7-330, chain 2 of 2) above, with H60K, Y128A counted along it

B1: I3_(27-59) (Δ60–68) (domain or fragment, human, UniProt O60927 27-59, looked up)
chain: SLTIKLRKRKPEKKVEWTSDTVDNEHMGRRSSK
notes: made by a stop codon in the I3 27-68 construct; lacks the CCC motif; also called I3_(ΔCCC); CCC_(deletion); source: E. coli BL21 (DE3), purified (Ni-NTA, TEV, heat 95 °C, SEC); not shown: His6, N-terminal, cleaved; MBP, N-terminal, cleaved
[1]
  Kd: 396 ± 11 nM

B2: I3_(27-68) (domain or fragment, human, UniProt O60927 27-68, looked up)
chain: SLTIKLRKRKPEKKVEWTSDTVDNEHMGRRSSKCCCIYEKPR
notes: source: E. coli BL21 (DE3), purified (Ni-NTA, TEV, heat 95 °C, SEC); not shown: His6, N-terminal, cleaved; MBP, N-terminal, cleaved
[2]
  Kd: 605 ± 32 nM
PP1α_(7-330) R96A
  Kd: 12 ± 1 nM
PP1α_(7-330) R96A/H66K
  Kd: 7 ± 1 nM
PP1α_(7-330) Y134A
  Kd: 9 ± 2 nM
PP1α_(7-330) Y134A/H66K
  Kd: 12 ± 3 nM
[1]
  Kd: 116 ± 12 nM

B3: I3_(27-68) C60S/C61S/C62S (domain or fragment, human, UniProt O60927 27-68, looked up)
chain: B2 chain with C34S, C35S, C36S
notes: also called I3_(27-68) SSS; SSS: I3_(27-68) CCC→SSS; source: E. coli BL21 (DE3), purified (Ni-NTA, TEV, heat 95 °C, SEC); not shown: His6, N-terminal, cleaved; MBP, N-terminal, cleaved
[1]
  Kd: 429 ± 30 nM
